Results on 4 molecules are retold here after PMC6718625, “CryoEM structures of Arabidopsis DDR complexes involved in RNA-directed DNA methylation” (Nature Communications, 2019).

B2: 6xHis-RDM1 (natural protein, Arabidopsis)
chain: SSMTMELRPSGDSGSSDVDAEISDGFSPLDTSHRDVADEGSLLRRAEMYQDYMKQVPIPTNRGSLIPFTSWVGLSISMKQLYGQPLHYLTNVLLQRWDQSRFGTDSEEQRLDSIIHPTKAEATIWLVEEIHRLTPSHLHMALLWRSDPMYHSFIDPIFPEK
notes: RDM1, Arabidopsis; also called His tag-RDM1; source: E. coli Rosetta2 (DE3), pCDFDuet-1, co-expressed with DMS3; purified within the DR or DDR′ complex, or in lysate (pulldown); not shown: 6xHis, N-terminal, kept

Data set [1] deals with the molecule itself. In words: SEC; His tag affinity-purified DMS3 WT or G339E on analytical Superdex 200 10/300 GL, 20 mM HEPES-KOH pH 7.5, 150 mM NaCl. (In gel filtration, larger molecules generally elute earlier.)
Data set [2] concerns the molecule itself. Briefly: cryo-EM structure; single-particle cryoEM of the purified DR complex, 3.6 Å.
For data set [3], the target named is B2. The description is as above. The settings on record: both partners purified.
Data set [4] has as its target T1, DRD1 peptide 7 with C-terminal Strep II tag (Arabidopsis, UniProt Q9SIW2 45-99).
T1 construct: DRD1, Arabidopsis, region called peptide 7 in the N-terminal domain; source: E. coli Rosetta2 (DE3), pET21b, co-expressed with RDM1 and DMS3, purified as DDR′ complex (Strep Trap HP, Superdex 200); not shown: Strep II, C-terminal, kept
T1 sequence: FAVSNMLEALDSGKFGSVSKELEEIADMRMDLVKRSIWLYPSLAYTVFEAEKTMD
In words: cryo-EM structure; single-particle cryoEM of the purified DDR′ complex (DRD1 peptide 7-DMS3-RDM1), 3.5 Å. The note with it: both partners purified.

B1: His-DMS3 WT (natural protein, Arabidopsis, UniProt Q94A79 1-420, looked up)
chain: MYPTGQQISFQTTPLNVQDPTRMMNLDQSSPVARNETQNGGGIAHAEFAMFNSKRLESDLEAMGNKIKQHEDNLKFLKSQKNKMDEAIVDLQVHMSKLNSSPTPRSENSDNSLQGEDINAQILRHENSAAGVLSLVETLHGAQASQLMLTKGVVGVVAKLGKVNDENLSQILSNYLGTRSMLAVVCRNYESVTALEAYDNHGNIDINAGLHCLGSSIGREIGDSFDAICLENLRPYVGQHIADDLQRRLDLLKPKLPNGECPPGFLGFAVNMIQIDPAYLLCVTSYGYGLRETLFYNLFSRLQVYKTRADMISALPCISDGAVSLDGGIIRKTGIFNLGNRDEVNVRFAKPTASRTMDNYSEAEKKMKELKWKKEKTLEDIKREQVLREHAVFNFGKKKEEFVRCLAQSSCTNQPMNTPR
notes: DMS3, Arabidopsis; also called recombinant DMS3 WT; source: E. coli Rosetta2 (DE3), pCDF-His-DMS3, purified (Ni-NTA agarose)
As to B1, in data set [1], the binding result is given as “binds”. By stoichiometry N is commonly meant the number of molecules, sites or subunits per partner or assembly. For the molecule B2, in data set [2], the “stoichiometry N” value came out at 2.

B3: DMS3 (recombinant, co-expressed with His-RDM1) (natural protein, Arabidopsis)
chain: YPTGQQISFQTTPLNVQDPTRMMNLDQSSPVARNETQNGGGIAHAEFAMFNSKRLESDLEAMGNKIKQHEDNLKFLKSQKNKMDEAIVDLQVHMSKLNSSPTPRSENSDNSLQGEDINAQILRHENSAAGVLSLVETLHGAQASQLMLTKGVVGVVAKLGKVNDENLSQILSNYLGTRSMLAVVCRNYESVTALEAYDNHGNIDINAGLHCLGSSIGREIGDSFDAICLENLRPYVGQHIADDLQRRLDLLKPKLPNGECPPGFLGFAVNMIQIDPAYLLCVTSYGYGLRETLFYNLFSRLQVYKTRADMISALPCISDGAVSLDGGIIRKTGIFNLGNRDEVNVRFAKPTASRTMDNYSEAEKKMKELKWKKEKTLEDIKREQVLREHAVFNFGKKKEEFVRCLAQSSCTNQPMNTPR
notes: DMS3, Arabidopsis; residues 1-42 and 410-420 are said not to be visible in the maps; DMS3h, DMS3hc1 and DMS3hc2 are conformational states of the same chain in the structures; also called DMS3 WT; DMS3h; source: E. coli Rosetta2 (DE3), pCDFDuet-1, co-expressed with His-RDM1; purified within the DR or DDR′ complex, or in lysate (pulldown)
Turning to B3, the “stoichiometry N” value is 2 in data set [2] and 2 DMS3 per RDM1 (4:2) in data set [3].

B4: DR complex (DMS3-RDM1) (complex, Arabidopsis)
chain 1: SSMTMELRPSGDSGSSDVDAEISDGFSPLDTSHRDVADEGSLLRRAEMYQDYMKQVPIPTNRGSLIPFTSWVGLSISMKQLYGQPLHYLTNVLLQRWDQSRFGTDSEEQRLDSIIHPTKAEATIWLVEEIHRLTPSHLHMALLWRSDPMYHSFIDPIFPEK
chain 2: YPTGQQISFQTTPLNVQDPTRMMNLDQSSPVARNETQNGGGIAHAEFAMFNSKRLESDLEAMGNKIKQHEDNLKFLKSQKNKMDEAIVDLQVHMSKLNSSPTPRSENSDNSLQGEDINAQILRHENSAAGVLSLVETLHGAQASQLMLTKGVVGVVAKLGKVNDENLSQILSNYLGTRSMLAVVCRNYESVTALEAYDNHGNIDINAGLHCLGSSIGREIGDSFDAICLENLRPYVGQHIADDLQRRLDLLKPKLPNGECPPGFLGFAVNMIQIDPAYLLCVTSYGYGLRETLFYNLFSRLQVYKTRADMISALPCISDGAVSLDGGIIRKTGIFNLGNRDEVNVRFAKPTASRTMDNYSEAEKKMKELKWKKEKTLEDIKREQVLREHAVFNFGKKKEEFVRCLAQSSCTNQPMNTPR
notes: RDM1, Arabidopsis; DMS3, Arabidopsis; residues 1-42 and 410-420 are said not to be visible in the maps; Stoichiometry 4 DMS3 : 2 RDM1 by cryo-EM; also called DMS3-RDM1 complex; source: E. coli Rosetta2 (DE3), co-expressed from pCDFDuet-1, purified (His Trap HP or, with DRD1 peptide 7, Strep Trap HP; Superdex 200); not shown: 6xHis, N-terminal, kept; copies: 2 + 4
For the molecule B4, the “stoichiometry N” value in data set [4] turned out to be 1 peptide per DR complex.
